Measurements taken from article PMC5600700.
One block for each substance: values may come before it.

Assays:
[1] = target: Cx45 CT (UniProt P36383); conditions: cited from earlier work
[2] = target: Cx45CT WT (Lyn-HA-Cx45CT-mVenusN and Lyn-Myc-Cx45CT-mVenusC) (not stated (human or mouse cDNA cloned)); assay: split reporter
[3] = target: Cx45 6E (stably expressed in MDCK cells) (not stated (human or mouse cDNA cloned)) (UniProt P28229); assay: co-IP
Chain of UniProt P28229 (P28229 whole entry L335E/L338E/L349E/I353E/Y356E): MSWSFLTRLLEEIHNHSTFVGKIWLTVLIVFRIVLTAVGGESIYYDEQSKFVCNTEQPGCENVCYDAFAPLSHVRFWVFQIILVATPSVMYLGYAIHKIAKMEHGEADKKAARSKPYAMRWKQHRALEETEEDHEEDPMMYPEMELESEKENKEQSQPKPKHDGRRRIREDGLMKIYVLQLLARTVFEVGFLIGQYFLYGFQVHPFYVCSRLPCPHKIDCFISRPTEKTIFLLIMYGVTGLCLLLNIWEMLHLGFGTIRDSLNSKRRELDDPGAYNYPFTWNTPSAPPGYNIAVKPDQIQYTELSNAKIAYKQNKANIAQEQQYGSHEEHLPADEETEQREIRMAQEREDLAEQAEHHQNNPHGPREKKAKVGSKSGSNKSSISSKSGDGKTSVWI

Substance: Cx45 CT (from UniProt P36383)
Kd [1]: 100 nM

Substance: developmentally regulated brain protein (Drebrin) (natural protein)
fold increase of the co-immunoprecipitated amount relative to Cx45 WT [3]: 2 fold

More lines, now with the values ahead:

fold mVenus signal at the plasma membrane (normalized to Myc) over Cx45CT 6E [2]: 2.5 fold
Substance: Cx45CT WT (Lyn-HA-Cx45CT-mVenusN and Lyn-Myc-Cx45CT-mVenusC) (domain or fragment)

fold decrease of the co-immunoprecipitated amount relative to Cx45 WT [3]: 2 fold
Substance: neural precursor cell expressed developmentally down-regulated protein 4 (Nedd4) (enzyme)

fold decrease of the co-immunoprecipitated amount relative to Cx45 WT [3]: 3 fold
Substance: β-tubulin (natural protein)
